From patent US20170022287A1 (Chugai, published 2017)
Residue numbers refer to the chain shown, from its start.

How the values were obtained:
[1] = molecular target: mouse CD137 on T cells (mouse, UniProt P20334 24-256); test: cell-based or functional assay
[2] = molecular target: full-length human CD137-Fc fusion protein (human); test: ELISA, coated CD137-Fc protein 2 µg/mL, antibody 10 or 5 µg/mL; absorbance 620 nm divided by that of the uncoated well
Method: (§1) Fragmented human CD137-Fc fusion proteins were diluted to 2 μg/mL in an aqueous sodium carbonate solution adjusted to pH9.6. Fifty μL of a diluted fragmented human CD137-Fc fusion protein was added individually to each well of a Nunc MaxiSorp flat-bottom 96 well plate (Nunc). This was allowed to stand at 4° C. overnight or longer, and then the plate was allowed to stand at room temperature for one hour so that the plate has the same temperature as the room temperature. The solution containing the fragmented human CD137-Fc fusion protein was removed by tilting, and each well was washed three times with 300 μL of Wash buffer (TBS containing 0.1% Tween20, TaKaRa). Next, 150 μL of blocking buffer (TBS containing 2% BSA) was added to each well, and this was allowed to stand for one hour or more. The blocking buffer was removed by tilting, and each well was washed three times with Wash Buffer in a similar manner to an earlier step. Then, 50 μL of an antibody solution prepared in advance by dilution with TBS to 10 μg/mL or 5 μg/mL was added to each well. This was subjected to a speed of 600 rpm or so for one hour at room temperature to bind the antibody to the immobilized antigen. […] 100 μL of a secondary antibody solution produced by 1000-fold dilution with TBS containing 0.1% Tween20 was added to each well. For the secondary antibody, ANTIBODY ALKALINE PHOSPHATASE CONJUGATE HUMAN IMMUNOGLOBULIN ABSORBED Goat Anti-Human Kappa Alkaline Phosphate from BIOSOURCE was used in the case of antibodies carrying a Kappa chain, and Human Lambda Light Chain Antibody; Goat anti-Human Lambda Light Chain Antibody Alkaline Phosphatase Conjugated from BETHYL LABORATORIES INC. was used in the case of antibodies carrying a Lambda chain. […] Color development was performed using the BluePhos Microwell kit from KPL. After the chromogenic reaction was stopped using the AP stop solution from KPL, the absorbance was measured at 620 nm on an absorptiometer.

[3] = molecular target: T1, CRD1-2; test: as above
T1 construct: also called fragmented human CD137-Fc fusion protein CRD1-2
T1 sequence (chain, as listed by the source limits assumed): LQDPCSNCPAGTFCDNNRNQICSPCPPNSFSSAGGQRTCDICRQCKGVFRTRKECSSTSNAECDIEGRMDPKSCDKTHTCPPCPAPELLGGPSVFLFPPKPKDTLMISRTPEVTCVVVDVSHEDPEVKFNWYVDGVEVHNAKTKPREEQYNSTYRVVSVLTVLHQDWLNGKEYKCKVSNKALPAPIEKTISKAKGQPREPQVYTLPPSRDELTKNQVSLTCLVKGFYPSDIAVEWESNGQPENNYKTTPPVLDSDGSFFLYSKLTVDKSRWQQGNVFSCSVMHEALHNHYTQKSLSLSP
Method: as §1

[4] = molecular target: T2, CRD1; test: as above
T2 construct: also called fragmented human CD137-Fc fusion protein CRD1
T2 sequence (chain, as listed by the source limits assumed): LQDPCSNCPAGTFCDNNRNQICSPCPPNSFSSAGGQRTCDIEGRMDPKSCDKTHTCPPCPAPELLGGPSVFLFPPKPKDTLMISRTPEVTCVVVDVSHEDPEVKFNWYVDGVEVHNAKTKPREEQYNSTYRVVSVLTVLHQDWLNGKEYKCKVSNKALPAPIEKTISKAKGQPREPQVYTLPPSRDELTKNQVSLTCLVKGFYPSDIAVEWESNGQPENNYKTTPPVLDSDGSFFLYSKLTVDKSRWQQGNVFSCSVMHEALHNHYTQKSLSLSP
Method: as §1

[5] = molecular target: T3, CRD2-4; test: as above
T3 construct: also called fragmented human CD137-Fc fusion protein CRD2-4
T3 sequence (chain, as listed by the source limits assumed): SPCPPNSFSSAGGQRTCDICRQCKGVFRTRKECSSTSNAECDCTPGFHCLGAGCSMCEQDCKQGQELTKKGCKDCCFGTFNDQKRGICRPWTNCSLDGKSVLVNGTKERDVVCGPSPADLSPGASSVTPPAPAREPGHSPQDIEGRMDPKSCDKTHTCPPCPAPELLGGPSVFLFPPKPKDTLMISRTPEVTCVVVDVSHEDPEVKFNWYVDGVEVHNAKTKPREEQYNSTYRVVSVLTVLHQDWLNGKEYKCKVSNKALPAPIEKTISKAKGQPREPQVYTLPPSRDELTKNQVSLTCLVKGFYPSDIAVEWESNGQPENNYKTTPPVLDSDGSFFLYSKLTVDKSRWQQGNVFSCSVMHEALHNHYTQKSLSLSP
Method: as §1

[6] = molecular target: T4, CRD2-3; test: as above
T4 construct: also called fragmented human CD137-Fc fusion protein CRD2-3
T4 sequence (chain, as listed by the source limits assumed): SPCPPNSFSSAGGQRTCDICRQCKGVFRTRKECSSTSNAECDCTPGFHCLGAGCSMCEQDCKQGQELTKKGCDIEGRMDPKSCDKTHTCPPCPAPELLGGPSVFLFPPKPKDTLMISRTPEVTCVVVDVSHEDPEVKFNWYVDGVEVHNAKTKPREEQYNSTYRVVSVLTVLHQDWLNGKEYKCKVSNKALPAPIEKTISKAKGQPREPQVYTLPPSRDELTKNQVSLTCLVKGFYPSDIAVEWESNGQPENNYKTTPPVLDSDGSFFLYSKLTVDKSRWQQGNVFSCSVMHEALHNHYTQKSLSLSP
Method: as §1

[7] = molecular target: T5, CRD3-4; test: as above
T5 construct: also called fragmented human CD137-Fc fusion protein CRD3-4
T5 sequence (chain, as listed by the source limits assumed): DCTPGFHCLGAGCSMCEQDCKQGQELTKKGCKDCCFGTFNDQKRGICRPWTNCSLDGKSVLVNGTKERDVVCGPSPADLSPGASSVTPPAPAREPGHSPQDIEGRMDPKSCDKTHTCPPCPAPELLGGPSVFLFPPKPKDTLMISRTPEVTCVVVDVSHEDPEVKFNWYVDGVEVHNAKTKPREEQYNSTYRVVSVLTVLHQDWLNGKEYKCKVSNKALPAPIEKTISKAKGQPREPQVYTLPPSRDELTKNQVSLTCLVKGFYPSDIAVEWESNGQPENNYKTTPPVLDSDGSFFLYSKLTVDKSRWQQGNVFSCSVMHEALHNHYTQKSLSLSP
Method: as §1

[8] = molecular target: T6, CRD1-3; test: as above
T6 construct: also called fragmented human CD137-Fc fusion protein CRD1-3
T6 sequence (chain, as listed by the source limits assumed): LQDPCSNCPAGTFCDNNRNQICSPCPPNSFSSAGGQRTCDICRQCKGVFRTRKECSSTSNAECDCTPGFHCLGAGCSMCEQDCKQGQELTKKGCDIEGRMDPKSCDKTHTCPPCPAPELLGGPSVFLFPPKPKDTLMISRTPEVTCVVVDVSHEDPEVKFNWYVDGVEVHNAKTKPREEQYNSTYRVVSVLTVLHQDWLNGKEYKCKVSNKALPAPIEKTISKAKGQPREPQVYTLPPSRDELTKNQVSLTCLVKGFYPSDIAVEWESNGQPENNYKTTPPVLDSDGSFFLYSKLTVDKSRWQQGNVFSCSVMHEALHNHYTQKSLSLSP
Method: as §1

[9] = molecular target: T3, CRD2-4; test: ELISA, coated CD137-Fc protein 2 µg/mL, antibody 10 or 5 µg/mL, absorbance 620 nm; Non (uncoated well) 0.1705
Method: as §1

[10] = molecular target: T4, CRD2-3; test: as above
Method: as §1

[11] = molecular target: T5, CRD3-4; test: as above
Method: as §1

[12] = molecular target: T1, CRD1-2; test: as above
Method: as §1

[13] = molecular target: full-length human CD137-Fc fusion protein (human); test: as above
Method: as §1

[14] = molecular target: T6, CRD1-3; test: as above
Method: as §1

[15] = molecular target: T2, CRD1; test: as above
Method: as §1

[16] = molecular target: T7, mouse Fcγ receptor III extracellular domain with C-terminal His tag (mouse, UniProt P08508 31-215); test: SPR (Biacore) kinetics, antibody captured on Protein L, mFcγR as analyte, 1:1 Langmuir model
T7 construct: extracellular domain; also called mFcγRIII; not shown: His tag at the C terminus
T7 sequence (looked up): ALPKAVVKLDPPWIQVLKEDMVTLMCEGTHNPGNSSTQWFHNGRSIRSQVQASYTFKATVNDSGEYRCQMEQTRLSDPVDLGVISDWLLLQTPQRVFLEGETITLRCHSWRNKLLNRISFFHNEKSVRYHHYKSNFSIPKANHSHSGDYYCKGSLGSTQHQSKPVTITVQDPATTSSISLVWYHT

Chain of full-length human CD137-Fc fusion protein (human) (chain, as listed by the source limits assumed): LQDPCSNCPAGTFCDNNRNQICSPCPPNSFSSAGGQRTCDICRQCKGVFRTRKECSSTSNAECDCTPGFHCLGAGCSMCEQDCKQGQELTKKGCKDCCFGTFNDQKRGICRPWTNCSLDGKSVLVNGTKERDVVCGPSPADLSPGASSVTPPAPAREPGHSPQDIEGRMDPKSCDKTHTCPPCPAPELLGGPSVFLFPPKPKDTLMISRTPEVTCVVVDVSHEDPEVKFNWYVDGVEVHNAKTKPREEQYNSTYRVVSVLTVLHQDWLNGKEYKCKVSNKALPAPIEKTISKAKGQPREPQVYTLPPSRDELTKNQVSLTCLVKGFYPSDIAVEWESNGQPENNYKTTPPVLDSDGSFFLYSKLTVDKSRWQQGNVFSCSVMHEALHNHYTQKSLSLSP
Chain of mouse CD137 on T cells (P20334 24-256): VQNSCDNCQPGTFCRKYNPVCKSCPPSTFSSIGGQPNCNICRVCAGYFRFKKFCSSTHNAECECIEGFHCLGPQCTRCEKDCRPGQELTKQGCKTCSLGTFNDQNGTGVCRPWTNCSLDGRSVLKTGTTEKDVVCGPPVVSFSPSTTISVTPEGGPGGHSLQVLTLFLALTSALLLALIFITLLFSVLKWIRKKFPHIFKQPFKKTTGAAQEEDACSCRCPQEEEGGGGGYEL

B1: 1D8VH-MB492/1D8VL-mk0 (antibody, mouse IgG1, kappa, V domains shown)
VH: QVQLKEAGPGLVQPTQTLSLTCTVSGFSLTSDGVHWIRQPPGKGLEWMGIIYYDGGTDYNSAIKSRLSISRDTSKSQVFLKINSLQTDDTAMYYCARIHFDYWGQGVMVTVSS
VL: DIVLTQSPTTIAASPGEKVTITCRASSSVSYMYWYQQKSGASPKLWIYDTSKLASGVPNRFSGSGSGTSYSLAINTMETEDAATYYCQQWSSTPLTFGSGTKLEIKR
- specific activity, mouse IFN-γ in the supernatant of spleen cells (ELISA) [1]: ~8 fold

B2: R12 (antibody, V domains shown)
VH: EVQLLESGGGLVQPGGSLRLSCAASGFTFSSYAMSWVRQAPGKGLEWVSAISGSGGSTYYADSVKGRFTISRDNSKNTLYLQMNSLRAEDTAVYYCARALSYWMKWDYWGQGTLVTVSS
VL: DIQMTQSPSSLSASVGDRVTITCRASQSISSYLNWYQQKPGKAPKLLIYAASSLQSGVPSRFSGSGSGTDFTLTISSLQPEDFATYYCQQFNGFPLTFGGGTKVEIK
notes: Synthetic library clone; Fab on phage in the phage ELISA
- Ratio with respect to Non-Coating [2]: 1.1

B3: R11 (antibody, V domains shown)
VH: QVQLLESGGGLVQPGGSLRLSCAASGFTFSSYAMSWVRQAPGKGLEWVSAISGSGGSTYYADSVKGRFTISRDNSKNTLYLQMNSLRAEDTAVYYCARDKWYYYPALDYWGQGTLVTVSS
VL: B2 VL with N92S, G93R
notes: as for B2
- Ratio with respect to Non-Coating [2]: 1

B4: R8 (antibody, V domains shown)
VH: QVQLQESGPGLVKPSETLSLTCAVSGYSISSGYYWGWIRQPPGKGLEWIGSIYHSGSTYYNPSLKSRVTISVDTSKNQFSLKLSSVTAADTAVYYCARQHSFTRYYGYYYFDYWGQGTTVTVSS
VL: B2 VL with Q89L, F91S, N92D, G93S, F94I
notes: as for B2
- Ratio with respect to Non-Coating [3]: 0.5
- Ratio with respect to Non-Coating [4]: 0.7

B5: R13 (antibody, V domains shown)
VH: QVQLVESGGGLVQPGGSLRLSCAASGFTFSYYDIQWVRQAPGKGLEWVSSISPSGQSTYYRREVKGRFTISRDNSKNTLYLQMNSLRAEDTAVYYCARRTGREYGGGWYFDYWGQGTLVTVSS
VL: B2 VL with N92S, G93R
notes: as for B2
- Ratio with respect to Non-Coating [2]: 0.4

B6: R19 (antibody, V domains shown)
VH: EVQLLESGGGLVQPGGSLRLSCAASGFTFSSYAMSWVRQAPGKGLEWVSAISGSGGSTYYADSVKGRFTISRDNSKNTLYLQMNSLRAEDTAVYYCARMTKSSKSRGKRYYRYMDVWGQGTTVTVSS
VL: B2 VL with Q89L, F91V, N92Y, G93S, F94S
notes: as for B2
- Ratio with respect to Non-Coating [2]: 0.9

B7: R16 (antibody, V domains shown)
VH: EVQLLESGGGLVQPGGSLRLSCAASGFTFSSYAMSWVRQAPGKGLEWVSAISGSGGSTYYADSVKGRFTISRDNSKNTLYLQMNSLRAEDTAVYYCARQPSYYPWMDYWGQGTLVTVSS
VL: B2 VL with G93N, F94Y
notes: as for B2
- Ratio with respect to Non-Coating [5]: 12.7
- Ratio with respect to Non-Coating [6]: 14.9
- Ratio with respect to Non-Coating [7]: 15.4
- Ratio with respect to Non-Coating [3]: 1.6
- Ratio with respect to Non-Coating [2]: 11.3
- Ratio with respect to Non-Coating [8]: 13.1
- Ratio with respect to Non-Coating [4]: 1.7
- ELISA color development level [9]: 2.17
- ELISA color development level [10]: 2.54
- ELISA color development level [11]: 2.63
- ELISA color development level [12]: 0.269
- ELISA color development level [13]: 1.93
- ELISA color development level [14]: 2.24
- ELISA color development level [15]: 0.286

B8: R14 (antibody, V domains shown)
VH: B3 VH
VL: B2 VL with Q89L, F91V, N92Y, G93R, F94S
notes: as for B2
- Ratio with respect to Non-Coating [2]: 0.9

B9: R15 (antibody, V domains shown)
VH: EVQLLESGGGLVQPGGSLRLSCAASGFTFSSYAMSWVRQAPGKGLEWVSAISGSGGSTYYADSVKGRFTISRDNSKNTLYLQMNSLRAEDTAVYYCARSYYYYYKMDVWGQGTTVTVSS
VL: B2 VL with N92V, G93R, F94H, L96P
notes: as for B2
- Ratio with respect to Non-Coating [2]: 0.6

B10: H237-mIgG1/MRAL-k0 (antibody)
heavy: QVQLQESGPGLVKPSETLSLTCAVSGHSISHDHAWSWVRQPPGEGLEWIGFISYSGITNYNPSLQGRVTISRDNSKNTLYLQMNSLRAEDTAVYYCARSLARTTAMDYWGEGTLVTVSSAKTTPPSVYPLAPGSAAQTNSMVTLGCLVKGYFPEPVTVTWNSGSLSSGVHTFPAVLQSDLYTLSSSVTVPSSTWPSETVTCNVAHPASSTKVDKKIVPRDCGCKPCICTVPEVSSVFIFPPKPKDVLTITLTPKVTCVVVDISKDDPEVQFSWFVDDVEVHTAQTQPREEQFNSTFRSVSELPIMHQDWLNGKEFKCRVNSAAFPAPIEKTISKTKGRPKAPQVYTIPPPKEQMAKDKVSLTCMITDFFPEDITVEWQWNGQPAENYKNTQPIMDTDGSYFVYSKLNVQKSNWEAGNTFTCSVLHEGLHNHHTEKSLSHSPGK
light: not shown
notes: Anti-human IL-6 receptor variable region H237 with mouse IgG1 constant region; copies: 2 + 2
- Kd [16]: 282 nM
